The supplement of paper PMC10065799, “High-throughput profiling of sequence recognition by tyrosine kinases and SH2 domains using bacterial peptide display” (eLife, 2023)

Experiments:
EPHB1 = EPHB1 (UniProt P54762); test: phosphorylation enrichment, bacterial display (enrichment ratio); higher = better substrate or ligand; peptides without Tyr show the background
EPHB2 = EPHB2 (UniProt P29323); test: as above
c-Src = test: as above
FGFR3 = FGFR3 (UniProt P22607); test: as above
Jak2 = Jak2 (UniProt O60674); test: as above
c-Abl (mouse) = test: as above
AncSZ = test: as above
Fer (mouse) = test: as above
Fes = Fes (UniProt P07332); test: as above
Fyn = Fyn (UniProt P06241); test: as above
MERTK = MERTK (UniProt Q12866); test: as above
Hck = Hck (UniProt P08631); test: as above
FGFR1 = FGFR1 (UniProt P11362); test: as above
Grb2 SH2 = Grb2 SH2 (UniProt P62993); test: SH2 binding enrichment of the phosphorylated peptide, bacterial display (enrichment ratio); higher = better substrate or ligand; peptides without Tyr show the background
SHP2-C SH2 = test: as above
c-Src SH2 = test: as above
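Wherever SH2 binding enrichment of the phosphorylated peptide, bacterial display is given: peptide library displayed on the E. coli surface as eCPX fusions, selected cells deep-sequenced, score is each peptide's frequency after selection divided by its frequency in the input.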
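Wherever phosphorylation enrichment, bacterial display is given: 11-residue human phosphosite peptides and single-mutation variants displayed on the E. coli surface, counted by deep sequencing, each peptide's frequency after selection divided by its frequency in the unselected input library; frequency after pTyr selection over input frequency; kinase dosed for 20-30% of maximal phosphorylation in three min.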

Sequence of Fes (P07332 whole entry, looked up): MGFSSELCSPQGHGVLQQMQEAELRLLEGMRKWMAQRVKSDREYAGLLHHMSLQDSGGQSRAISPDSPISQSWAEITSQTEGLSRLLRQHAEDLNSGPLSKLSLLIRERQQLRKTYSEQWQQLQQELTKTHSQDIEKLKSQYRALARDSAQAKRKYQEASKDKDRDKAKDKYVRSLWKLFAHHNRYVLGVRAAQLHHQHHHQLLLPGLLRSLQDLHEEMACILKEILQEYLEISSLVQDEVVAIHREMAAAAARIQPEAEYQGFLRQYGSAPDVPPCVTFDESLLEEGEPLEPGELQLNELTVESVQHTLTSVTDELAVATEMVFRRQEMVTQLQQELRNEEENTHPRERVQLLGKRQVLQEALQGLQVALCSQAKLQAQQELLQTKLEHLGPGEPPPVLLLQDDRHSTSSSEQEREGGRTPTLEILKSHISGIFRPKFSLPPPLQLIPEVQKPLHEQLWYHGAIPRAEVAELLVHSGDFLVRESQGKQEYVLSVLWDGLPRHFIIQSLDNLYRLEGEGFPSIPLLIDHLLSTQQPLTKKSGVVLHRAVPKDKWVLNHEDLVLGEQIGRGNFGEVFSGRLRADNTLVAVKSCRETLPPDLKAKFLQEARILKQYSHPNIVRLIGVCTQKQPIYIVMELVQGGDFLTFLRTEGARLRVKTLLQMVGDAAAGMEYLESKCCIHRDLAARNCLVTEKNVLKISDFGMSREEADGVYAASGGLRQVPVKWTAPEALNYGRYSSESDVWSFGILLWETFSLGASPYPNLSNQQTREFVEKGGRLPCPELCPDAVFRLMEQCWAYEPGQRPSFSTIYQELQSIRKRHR
Sequence of Fyn (P06241 whole entry, looked up): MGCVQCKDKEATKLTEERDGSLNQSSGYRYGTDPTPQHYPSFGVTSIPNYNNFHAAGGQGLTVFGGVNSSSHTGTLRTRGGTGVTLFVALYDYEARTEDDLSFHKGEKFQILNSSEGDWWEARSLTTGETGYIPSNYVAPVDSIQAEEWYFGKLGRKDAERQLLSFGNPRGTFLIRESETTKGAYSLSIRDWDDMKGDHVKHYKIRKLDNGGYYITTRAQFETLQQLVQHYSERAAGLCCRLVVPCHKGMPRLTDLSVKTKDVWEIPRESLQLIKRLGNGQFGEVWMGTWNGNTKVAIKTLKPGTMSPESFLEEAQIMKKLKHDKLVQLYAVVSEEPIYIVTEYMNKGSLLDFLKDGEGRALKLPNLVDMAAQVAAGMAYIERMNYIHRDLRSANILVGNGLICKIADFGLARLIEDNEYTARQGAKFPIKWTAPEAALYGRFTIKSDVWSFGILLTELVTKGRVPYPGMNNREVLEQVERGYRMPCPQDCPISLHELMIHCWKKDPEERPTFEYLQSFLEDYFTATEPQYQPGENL
Sequence of EPHB2 (P29323 whole entry, looked up): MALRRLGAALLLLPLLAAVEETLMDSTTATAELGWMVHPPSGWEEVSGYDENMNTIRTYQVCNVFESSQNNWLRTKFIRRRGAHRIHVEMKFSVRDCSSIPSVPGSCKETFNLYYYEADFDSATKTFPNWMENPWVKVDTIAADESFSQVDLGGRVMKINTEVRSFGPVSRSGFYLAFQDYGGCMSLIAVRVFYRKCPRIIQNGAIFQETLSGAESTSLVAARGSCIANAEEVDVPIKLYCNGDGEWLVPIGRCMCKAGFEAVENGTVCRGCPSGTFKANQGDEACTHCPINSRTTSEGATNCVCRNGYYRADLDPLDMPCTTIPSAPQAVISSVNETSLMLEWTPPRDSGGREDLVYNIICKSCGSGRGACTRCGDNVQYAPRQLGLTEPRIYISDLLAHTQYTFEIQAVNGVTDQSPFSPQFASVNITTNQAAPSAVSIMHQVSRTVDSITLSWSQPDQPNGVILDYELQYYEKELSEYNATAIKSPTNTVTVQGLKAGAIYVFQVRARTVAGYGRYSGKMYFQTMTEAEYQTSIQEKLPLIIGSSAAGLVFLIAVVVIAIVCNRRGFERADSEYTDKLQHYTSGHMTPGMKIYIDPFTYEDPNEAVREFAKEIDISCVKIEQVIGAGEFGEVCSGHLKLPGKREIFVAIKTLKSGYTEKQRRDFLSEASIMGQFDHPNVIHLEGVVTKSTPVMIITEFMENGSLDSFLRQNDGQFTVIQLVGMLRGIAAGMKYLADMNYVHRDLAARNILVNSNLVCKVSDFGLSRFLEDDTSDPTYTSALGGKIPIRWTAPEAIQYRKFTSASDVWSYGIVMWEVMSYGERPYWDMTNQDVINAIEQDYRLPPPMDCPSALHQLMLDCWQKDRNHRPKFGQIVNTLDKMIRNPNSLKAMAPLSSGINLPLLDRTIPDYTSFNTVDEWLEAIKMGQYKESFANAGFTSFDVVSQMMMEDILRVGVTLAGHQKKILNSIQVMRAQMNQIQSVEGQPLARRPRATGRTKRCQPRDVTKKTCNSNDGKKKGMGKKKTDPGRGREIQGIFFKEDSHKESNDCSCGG
Sequence of EPHB1 (P54762 whole entry, looked up): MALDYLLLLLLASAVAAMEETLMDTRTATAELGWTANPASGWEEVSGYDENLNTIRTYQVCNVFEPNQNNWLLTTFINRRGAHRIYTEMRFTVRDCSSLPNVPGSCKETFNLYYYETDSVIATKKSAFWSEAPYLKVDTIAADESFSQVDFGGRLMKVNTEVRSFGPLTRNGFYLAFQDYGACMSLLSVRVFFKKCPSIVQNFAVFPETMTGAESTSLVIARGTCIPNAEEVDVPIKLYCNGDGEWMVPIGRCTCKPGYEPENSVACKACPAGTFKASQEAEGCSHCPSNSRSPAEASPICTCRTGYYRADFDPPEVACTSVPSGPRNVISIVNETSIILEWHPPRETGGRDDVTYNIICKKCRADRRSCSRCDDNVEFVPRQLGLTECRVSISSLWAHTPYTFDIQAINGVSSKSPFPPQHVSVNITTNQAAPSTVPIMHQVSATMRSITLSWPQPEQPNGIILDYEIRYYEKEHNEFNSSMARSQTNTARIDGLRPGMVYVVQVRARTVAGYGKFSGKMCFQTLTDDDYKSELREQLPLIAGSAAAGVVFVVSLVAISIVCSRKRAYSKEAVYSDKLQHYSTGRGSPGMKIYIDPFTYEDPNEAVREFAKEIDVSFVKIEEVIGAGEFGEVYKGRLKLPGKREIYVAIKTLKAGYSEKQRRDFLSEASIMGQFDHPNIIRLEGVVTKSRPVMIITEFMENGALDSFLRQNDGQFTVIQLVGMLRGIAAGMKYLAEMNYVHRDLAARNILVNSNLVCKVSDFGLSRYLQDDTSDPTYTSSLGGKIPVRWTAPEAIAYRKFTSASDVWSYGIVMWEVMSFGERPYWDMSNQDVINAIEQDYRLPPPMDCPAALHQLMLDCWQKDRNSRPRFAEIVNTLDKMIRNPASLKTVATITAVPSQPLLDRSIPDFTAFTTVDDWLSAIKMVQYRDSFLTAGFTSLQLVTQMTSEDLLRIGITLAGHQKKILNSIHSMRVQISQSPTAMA
Sequence of MERTK (Q12866 whole entry, looked up): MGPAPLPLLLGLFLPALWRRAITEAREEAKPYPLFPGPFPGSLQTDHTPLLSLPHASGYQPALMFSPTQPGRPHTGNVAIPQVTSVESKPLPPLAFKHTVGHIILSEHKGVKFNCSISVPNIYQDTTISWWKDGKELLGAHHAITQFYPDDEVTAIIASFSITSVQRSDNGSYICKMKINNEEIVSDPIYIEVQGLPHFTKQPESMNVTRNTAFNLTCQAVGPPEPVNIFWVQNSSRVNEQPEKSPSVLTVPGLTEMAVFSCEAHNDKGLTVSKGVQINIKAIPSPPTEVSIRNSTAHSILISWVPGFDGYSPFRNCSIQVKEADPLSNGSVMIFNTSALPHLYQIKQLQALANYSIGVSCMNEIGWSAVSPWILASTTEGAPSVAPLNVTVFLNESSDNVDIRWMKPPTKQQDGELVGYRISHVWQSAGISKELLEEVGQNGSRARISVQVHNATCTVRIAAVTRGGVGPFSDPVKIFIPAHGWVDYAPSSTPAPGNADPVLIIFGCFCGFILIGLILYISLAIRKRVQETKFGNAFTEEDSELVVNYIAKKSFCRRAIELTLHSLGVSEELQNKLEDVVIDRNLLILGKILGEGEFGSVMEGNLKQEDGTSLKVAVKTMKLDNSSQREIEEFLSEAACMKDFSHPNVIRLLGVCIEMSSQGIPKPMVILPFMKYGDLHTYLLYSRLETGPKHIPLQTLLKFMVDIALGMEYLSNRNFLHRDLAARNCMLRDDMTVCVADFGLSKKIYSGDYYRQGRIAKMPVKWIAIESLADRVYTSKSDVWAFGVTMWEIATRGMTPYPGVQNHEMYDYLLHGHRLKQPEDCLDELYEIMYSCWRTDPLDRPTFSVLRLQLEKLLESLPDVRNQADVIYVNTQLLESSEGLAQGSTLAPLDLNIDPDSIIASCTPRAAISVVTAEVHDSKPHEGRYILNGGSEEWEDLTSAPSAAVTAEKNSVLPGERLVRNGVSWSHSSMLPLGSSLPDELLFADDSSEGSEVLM
Sequence of Hck (P08631 whole entry, looked up): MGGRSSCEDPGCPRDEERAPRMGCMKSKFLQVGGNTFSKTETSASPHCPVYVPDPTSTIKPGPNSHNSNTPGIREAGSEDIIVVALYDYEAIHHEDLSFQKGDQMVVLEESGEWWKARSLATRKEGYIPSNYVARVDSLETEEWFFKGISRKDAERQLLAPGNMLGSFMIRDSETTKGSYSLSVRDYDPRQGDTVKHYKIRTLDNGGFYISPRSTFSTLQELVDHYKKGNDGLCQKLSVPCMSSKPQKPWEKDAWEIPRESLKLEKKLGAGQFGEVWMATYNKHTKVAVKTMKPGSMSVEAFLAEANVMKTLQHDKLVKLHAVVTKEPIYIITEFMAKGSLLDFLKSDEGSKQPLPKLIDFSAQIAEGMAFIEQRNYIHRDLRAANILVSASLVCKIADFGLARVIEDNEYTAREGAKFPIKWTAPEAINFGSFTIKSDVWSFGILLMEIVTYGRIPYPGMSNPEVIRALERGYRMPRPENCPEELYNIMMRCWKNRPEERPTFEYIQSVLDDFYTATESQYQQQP

| Sequence | phosphorylation enrichment (EPHB1) | phosphorylation enrichment (EPHB2) | phosphorylation enrichment (c-Src) | phosphorylation enrichment (FGFR3) | phosphorylation enrichment (Jak2) | phosphorylation enrichment (c-Abl (mouse)) | phosphorylation enrichment (AncSZ) | phosphorylation enrichment (Fer (mouse)) | phosphorylation enrichment (Fes) | phosphorylation enrichment (Fyn) | phosphorylation enrichment (MERTK) | phosphorylation enrichment (Hck) | phosphorylation enrichment (FGFR1) | SH2 binding enrichment (Grb2 SH2) | SH2 binding enrichment (SHP2-C SH2) | SH2 binding enrichment (c-Src SH2) |
| --- | --- | --- | --- | --- | --- | --- | --- | --- | --- | --- | --- | --- | --- | --- | --- | --- |
| QQLDEYQELLD [LMNA_Y359] | 0.776 | 0.757 | 0.726 | 1.18 | 1.3 | 1.01 | 1.63 | 0.598 | 1.57 | 0.669 | 0.6 | 0.684 | 0.615 | 0.798 | 0.55 | 0.452 |
| QRPGLYDRPGA [HNRNPH2_Y210_P209L] | 0.933 | 0.512 | 0.806 | 0.773 | 0.829 | 1.2 | 0.737 | 0.802 | 0.943 | 0.741 | 0.852 | 1.22 | 0.651 | 0.804 | 0.513 | 1.59 |
| QRRFLYFFSFL [PTEN_Y176_V175L_YF] | 0.761 | 0.817 | 0.567 | 1.16 | 1.5 | 1.09 | 1.61 | 0.862 | 1.85 | 0.795 | 0.886 | 0.68 | 0.978 | 1.05 | 0.779 | 0.774 |
| QRTMKYTTATE [MCCC1_Y41_G46E] | 0.791 | 1.43 | 0.706 | 1.11 | 0.975 | 0.496 | 1.43 | 0.607 | 1.23 | 0.781 | 0.862 | 0.966 | 0.683 | 0.768 | 0.635 | 0.521 |
| QSQQAYQEAFE [YWHAZ_Y149] | 0.355 | 0.47 | 0.578 | 0.693 | 1.28 | 1.71 | 1.3 | 0.597 | 1.22 | 0.397 | 0.541 | 0.48 | 0.488 | 0.873 | 0.526 | 1.32 |
| QVMDGYPIPIG [MMP14_Y353_M355I] | 0.596 | 0.755 | 0.3 | 0.572 | 0.554 | 0.46 | 0.686 | 0.56 | 0.715 | 0.592 | 0.482 | 0.566 | 0.406 | 0.826 | 0.587 | 0.5 |
| QYNIQYSSSAA [ERBB2IP_Y981] | 0.335 | 0.583 | 0.749 | 0.648 | 0.68 | 0.408 | 0.913 | 0.606 | 0.964 | 0.702 | 0.452 | 0.47 | 0.693 | 0.978 | 0.679 | 0.59 |
| RAEIVYKSPVV [MAPT_Y711_G706R] | 0.663 | 0.507 | 0.723 | 0.857 | 0.779 | 16.4 | 0.995 | 0.363 | 1.46 | 0.482 | 0.415 | 0.674 | 0.783 | 0.869 | 0.765 | 0.452 |
| RAIGFYSATSK [FAM120A_Y328_YF] | 0.46 | 0.81 | 0.59 | 0.805 | 0.889 | 1.26 | 1.51 | 0.911 | 1.03 | 0.685 | 1.03 | 0.774 | 0.545 | 0.989 | 0.95 | 0.886 |
| RALLNYIASKY [GSTA3_Y74_I71L] | 0.551 | 0.521 | 0.381 | 0.798 | 0.8 | 0.578 | 0.611 | 0.47 | 0.959 | 0.678 | 0.509 | 0.553 | 0.343 | 1.22 | 0.917 | 0.768 |
| RASSSYRETPS [SORBS1_Y79] | 0.361 | 0.337 | 0.775 | 0.68 | 1.49 | 0.757 | 0.681 | 0.513 | 0.659 | 0.655 | 0.644 | 0.502 | 0.611 | 0.876 | 0.844 | 0.491 |
| RDIHDYIKHLG [UNC13C_Y308] | 0.597 | 0.985 | 0.487 | 0.474 | 0.614 | 0.373 | 0.9 | 0.582 | 0.696 | 0.576 | 0.46 | 0.519 | 0.449 | 0.92 | 0.97 | 0.507 |
| RDSQIYAVDYE [MRPS34_Y34_L33I] | 2.44 | 1.94 | 4.24 | 1.37 | 0.977 | 0.684 | 1.86 | 1.89 | 1.56 | 7.43 | 4.3 | 4.23 | 1.21 | 0.824 | 0.691 | 0.485 |
| RDVEQYVNNVN [PCDH19_Y1097_L1094V] | 0.545 | 0.594 | 0.398 | 0.701 | 0.855 | 1.02 | 0.928 | 0.454 | 0.93 | 0.577 | 0.522 | 0.645 | 0.544 | 2.37 | 0.541 | 0.621 |
| REGKIYEFNQV [ZNF665_Y162_H157R_YF] | 0.356 | 0.795 | 2.08 | 0.886 | 0.432 | 0.718 | 0.795 | 14.3 | 0.758 | 4.78 | 2.64 | 1.24 | 0.46 | 0.923 | 0.589 | 0.465 |
| REGKIYEYNQV [ZNF665_Y162_H157R] | 0.716 | 0.929 | 1.19 | 0.898 | 0.494 | 1.07 | 0.799 | 15.9 | 0.788 | 1.41 | 3.19 | 1.12 | 0.707 | 0.84 | 0.611 | 1.56 |
| RFGRKYKKVRF [F8_Y442_I438F] | 0.572 | 0.551 | 0.988 | 0.651 | 0.884 | 0.806 | 0.708 | 0.619 | 0.841 | 0.82 | 1.04 | 0.674 | 0.653 | 0.724 | 0.564 | 0.374 |

| Sequence | phosphorylation enrichment (EPHB1) | phosphorylation enrichment (EPHB2) | phosphorylation enrichment (c-Src) | phosphorylation enrichment (FGFR3) | phosphorylation enrichment (Jak2) | phosphorylation enrichment (c-Abl (mouse)) | phosphorylation enrichment (AncSZ) | phosphorylation enrichment (Fer (mouse)) | phosphorylation enrichment (Fes) | phosphorylation enrichment (Fyn) | phosphorylation enrichment (MERTK) | phosphorylation enrichment (Hck) | phosphorylation enrichment (FGFR1) | SH2 binding enrichment (Grb2 SH2) | SH2 binding enrichment (SHP2-C SH2) | SH2 binding enrichment (c-Src SH2) |
| --- | --- | --- | --- | --- | --- | --- | --- | --- | --- | --- | --- | --- | --- | --- | --- | --- |
| RFLERYIFNRE [HLA-DPB1_Y57_YF] | 0.324 | 0.363 | 0.432 | 0.543 | 0.748 | 0.627 | 0.786 | 0.356 | 0.914 | 0.311 | 0.409 | 0.44 | 0.329 | 1.54 | 1.09 | 1.46 |
| RFLRGYEQDAY [HLA-A_Y137_R138E] | 0.358 | 0.448 | 0.407 | 0.57 | 0.807 | 0.478 | 0.71 | 0.289 | 0.969 | 0.525 | 0.304 | 0.42 | 0.6 | 1.03 | 0.87 | 0.981 |
| RFLRGYQQDAY [HLA-A_Y137_R138Q] | 0.519 | 0.535 | 0.715 | 0.633 | 0.803 | 0.843 | 0.894 | 0.64 | 0.81 | 0.349 | 0.665 | 0.404 | 0.548 | 0.631 | 0.713 | 0.43 |
| RFLRGYRQHAF [HLA-A_Y137_D140H_YF] | 0.64 | 0.599 | 0.805 | 0.701 | 0.933 | 1.02 | 0.606 | 0.598 | 1.34 | 0.648 | 0.706 | 0.581 | 0.564 | 0.636 | 0.284 | 0.495 |
| RFVFFYSFLLK [PTEN_Y178_YF] | 0.748 | 0.502 | 1.05 | 0.9 | 1.64 | 1.45 | 1.44 | 0.612 | 1.65 | 0.623 | 0.539 | 0.509 | 0.731 | 1.45 | 1.43 | 0.552 |
| RGDCTYAPLLG [AR_Y269_M268T] | 8.38 | 9.28 | 6.35 | 1.26 | 1.18 | 2.55 | 1.21 | 1.33 | 1.46 | 8.94 | 7.45 | 9.33 | 1.42 | 0.88 | 0.594 | 0.896 |
| RGDSAYHSQRH [ERBB3_Y1132] | 0.534 | 0.469 | 0.462 | 0.427 | 0.288 | 0.453 | 0.51 | 0.569 | 0.731 | 0.455 | 0.357 | 0.305 | 0.401 | 1.11 | 0.65 | 0.819 |
| RGESFYQDRMN [RARS_Y338] | 0.463 | 0.392 | 0.541 | 0.512 | 0.899 | 0.726 | 0.746 | 0.603 | 0.996 | 0.411 | 0.469 | 0.631 | 0.534 | 0.794 | 0.725 | 0.461 |
| RGYRQDAYDGK [HLA-A_Y140] | 0.519 | 0.546 | 0.526 | 0.509 | 0.859 | 0.859 | 0.773 | 0.764 | 0.677 | 0.671 | 0.436 | 0.591 | 0.641 | 1.3 | 0.458 | 0.517 |
| RISGVYKLPPD [ANGPTL7_Y145] | 0.511 | 0.586 | 0.827 | 0.801 | 0.785 | 0.838 | 0.9 | 0.5 | 0.852 | 1 | 0.719 | 0.572 | 0.623 | 1.02 | 0.857 | 0.525 |
| RISRKYKKVRF [F8_Y442_G439S] | 0.891 | 1.07 | 0.749 | 0.749 | 0.64 | 0.711 | 0.879 | 0.759 | 0.883 | 0.721 | 0.805 | 0.571 | 0.986 | 0.461 | 0.636 | 0.391 |
| RIVRKYKKVRF [F8_Y442_G439V] | 0.699 | 0.84 | 0.87 | 0.765 | 0.65 | 0.687 | 0.964 | 0.93 | 0.78 | 0.823 | 0.824 | 0.547 | 0.647 | 0.652 | 0.503 | 0.477 |
| RKGIRYLTSGL [PIGA_Y82] | 0.533 | 0.437 | 0.648 | 0.688 | 0.657 | 0.438 | 0.698 | 0.368 | 0.668 | 0.434 | 0.57 | 0.645 | 0.47 | 1.05 | 0.709 | 0.399 |
| RLCQDYDIIGP [ANK1_Y1073_T1075I] | 10 | 12.7 | 1.47 | 1.84 | 1.17 | 0.663 | 2.56 | 1.81 | 1.26 | 1.6 | 1.26 | 2.46 | 2.35 | 0.703 | 0.781 | 1.29 |
| RLDRSYSFSFS [PEAR1_Y890_YF] | 0.783 | 0.48 | 0.575 | 0.607 | 0.816 | 0.593 | 1.06 | 0.809 | 0.984 | 0.702 | 0.62 | 0.791 | 0.738 | 0.75 | 0.677 | 0.544 |
| RLEGVYRNNID [PTEN_Y46] | 0.478 | 0.578 | 0.561 | 0.703 | 0.751 | 1.35 | 0.553 | 0.849 | 0.889 | 0.675 | 0.291 | 0.389 | 0.293 | 0.948 | 0.588 | 0.398 |
